In the DeepSol protein solubility set:

Experiment: soluble on expression in E. coli; label from the status in PepcDB or PDB records

Row | Sequence | soluble on expression in E. coli
1 | MFCFLQLPYHPNSSVHISTIDRITNSGRLYQYYSAEMTAEVIDFTKRNLEEAMNHNERRLLFRRSRSEPMTLTNENITMTSRTDPEWNMTVDSISIQSSFAEYQHRRKERLKKQEAHKTSEISLSSGPSELAMKGHTDFDAAIEFLDNKMPSTLSLTDSDNSHSSNDITSSQAKEISYEDEMRLFIEKTGHLVTNVFADPFDSDERKSRTEMWVEASTENLAEGGTTSDDVPTEKELELDMENNDILAESVVGTGTGELNDEKDEETVPVGLIPPVARQSTEDSILSSNVTVNSLLKSKLTINLKEASEALSEIDIADVDRFWDYLYEKDDIQKFSDELIYPIKMEIPSTSSSERSIGIALSPIKLDFAGIHVQKTGKIEKHIKMNSNEEKDRELDEPLEITDQTVETRFFELETTKNLEKINRGTTTSEHGNILIKTTASQTPVSQEVVQLVNYEPINFTKAQSDRNFDEKENMIRAFSFKLSESFYKDLKILVVERDRAKEAMDILPAKTMKELSEECNYYQTRYRVRIEQNKEKLDRRIEEVWKKLLKMPIESQEVIDFISVAHSELLTLNARRNLPDNM | not soluble
2 | MFDFIGNGSAFNTERGNNSAFIKKNSSMILVDCGGTVFHRIKQLNLLQDIKNLYIIITHTHPDHIGSLGDLIFYCYYILKFKPTIIYPNKDIITDFFNIIGVGDEMYELVSDNKVNLTAPEFGDLNIEFIPASHVGVIPAYGFLIGMSDNLVYYSGDGNKLPEKNYKMAGDPLEHHHHHH | not soluble
3 | MFDFSKVVDRHGTWCTQWDYVADRFGTADLLPFTISDMDFATAPCIIEALNQRLMHGVFGYSRWKNDEFLAAIAHWFSTQHYTAIDSQTVVYGPSVIYMVSELIRQWSETGEGVVIHTPAYDAFYKAIEGNQRTVMPVALEKQADGWFCDMGKLEAVLAKPECKIMLLCSPQNPTGKVWTCDELEIMADLCERHGVRVISDEIHMDMVWGEQPHIPWSNVARGDWALLTSGSKSFNIPALTGAYGIIENSSSRDAYLSALKGRDGLSSPSVLALTAHIAAYQQGAPWLDALRIYLKDNLTYIADKMNAAFPELNWQIPQSTYLAWLDLRPLNIDDNALQKALIEQEKVAIMPGYTYGEEGRGFVRLNAGCPRSKLEKGVAGLINAIRAVR | soluble
4 | MFDPKKFIDEAVEEIKQQISDRKAIIALSGGVDSSVAAVLTHKAIGDKLTAVFVDTGLMRKGEREEVEKTFRDKLGLNLIVVDAKDRFLNALKGVTDPEEKRKIIGKLFIDVFEEIAEDIKAEVLVQGTIAPDWIETQGKIKSHHNVALPHGMVLEVVEPLRELYKDEVRLLAKELGLPDSIVYRQPFPGPGLAVRVLGEVTEEKLNICREANAIVEEEVKKANLDKDLWQYFAVVLDCKATGVKGDEREYNWIVALRMVKSLDAMTAHVPEIPFDLLKRISKRITSEIPNVARVVFDITDKPPATIEFE | soluble
5 | MFDTLTHGELLKKTAMEVEADIAGIHKQIEEISERNEWRVLQSYRKHKVSDTHFTPSTGYGYDDIGRDTLESIYADVFGGEAGLVRPQIISGTHAISIALFGVLRPGDELLYITGKPYDTLEEIVGVRGGENAGSLKDFQIGYNAVDLTKDGKIDYDAVAAAINPKTKVIGIQRSKGYANRPSFLISEIKEMIRFVKEINENLIVFVDNCYGEFVEELEPCHVGADLMAGSLIKNPGGGLAKTGGYLVGKAKWIEACSYRMTSPGIGREAGASLYSLQEMYQGFFLAPHVVSQSLKGAVFTARFLEKLGFTSNPKWDAKRTDLIQSVEFSDGEKMIAFCQAIQFASPIDAHVTPYPAYMPGYEDDVIMAAGTFIQGASIELSADGPIRPPYVAYVQGGLTYSHVKNAICSAVDSLMQKQLILEHHHHHH | soluble
6 | MFDYSAHPELLKGRVILVTGAARGIGAAAARAYAAHGASVVLLGRTEASLAEVSDQIKSAGQPQPLIIALNLENATAQQYRELAARVEHEFGRLDGLLHNASIIGPRTPLEQLPDEDFMQVMHVNVNATFMLTRALLPLLKRSEDASIAFTSSSVGRKGRANWGAYGVSKFATEGLMQTLADELEGVTAVRANSINPGATRTGMRAQAYPDENPLNNPAPEDIMPVYLYLMGPDSTGINGQALNAQ | soluble
7 | MFENLTDRLSKTLKNISGKGRLTEDNIKDTLREVRMALLEADVALPVVRDFVNRVKEGAVGVEVSKSLTPGQEFIKIVRQQLEAVMGESNEALNLAAQPPAVILMAGLQGAGKTTSVGKLSKLLKERDKKKVLVVSADVYRPAAIKQLETLANDLGVDFFPSTPDQKPIDIANAAIDHAKKKFYDVLIVDTAGRLAIDEQMMAEIQALHKAINPVETLFVVDAMTGQDAADTAKAFGDALPLTGVILTKVDGDARGGAALSVRHITGKPIKFIGVGEKTDALEPFHPDRIASRILGMGDVLSLIEDLQRNVDQEKAEKLAKKFKEKKGFDLEDFREQLGQMKNMGGMMGMLDKLPGMSQLPADMKDKVDDRVFKQMEAIINSMTMKERQNPDLIKGSRKKRIAAGSGTQVQDVNRLLKQFTQMQKMMKKMQQGGMKGMMRNMQGLMGGGGRGGFGGGFFGR | not soluble
8 | MFFESCKSILYSDTLVPDIFITEYMPLLSSDSVKVYLYSLFLSKHNKKASTEEFAKSMGLEISTVKECLAQLESMGVLTWKEDGLVLHDLKEKEINKMYRLKTTSTPEEVASNCEKNKKRNEIIYTINNTFFQGVMSPSWYTDIDAWFDRYKFDEDVMLALFQYCFDHKGLIKPYIEKVAESWKNRNIRNAFDLDNYSIQYKKFKDVRSAIVKKLKLGRNLTEYEEAYVEKWVMDYNYDFDIIELALKKTTSKTNPNFDYLDSIITDWHNNNFKTKEEIMSYEAARKKKNSRTSSVSASVIVPQKGNFEQRKYEDEYLNSLYENA | not soluble
9 | MFFKQFYDKHLSQASYLIGCQKTGEAMIIDPIRDLSSYIRVADEEGLTITHAAETHIHADFASGIRDVAIKLNASIYVSGESDDTLGYKNMPNQTHFVQHNDDIYVGNIKLKVLHTPGHTPESISFLLTDEGAGAQVPMGLFSGDFIFVGDIGRPDLLEKAVKVEGSSEIGAKQMFKSIESIKDLPNYIQIWPGHGAGSPCGKSLGAIPTSTLGYEKQTNWAFSENNEATFIDKLISDQPAPPHHFAQMKKINQFGMNLYQPYTVYPATNTNRLTFDLRSKEAYHGGHIEGTINIPYDKNFINQIGWYLNYDQEINLIGEYHLVSKATHTLQLIGYDDVAGYQLPQSKIQTRSIHSEDITGNESHILDVRNDNEWNNGHLSQAVHVPHGKLLETDLPFNRNDVIYVHCQSGIRSSIAIGILEHKGYHNIINVNEGYKDIHLSLEHHHHHH | soluble
10 | MFGCITMSENNQCVIVGIAGASASGKSLIASTIYNELRAKVGDHQIGVITEDCYYKDQSHLSMEERVKTNYDHPSALDHDLLCQHLQMLARGEAVEVPEYSYTEHTRTEQTTTMTPKKVIILEGILLLTDPRLRDLMHATVFMDTPLDICLLRRVKRDVQERGRTMESVLKQYQETVRPMFMQFIEPSKQYADIIVPRGGKNRIAIDVLKAHIAKLLKS | not soluble
11 | MFGRHSIIPNNQIGTASASAGEDHVSASATSGHIPYDDMEEIPHPDSIYGAASDLIPDGSQLVAHRSDGSELLVSRPPEGANQLTISFRGQVYVFDAVGADKVDAVLSLLGGSTELAPGPQVMELAQQQNHMPVVEYQSRCSLPQRAQSLDRFRKKRNARCFEKKVRYGVRQEVALRMARNKGQFTSSKMTDGAYNSGTDQDSAQDDAHPEISCTHCGISSKCTPMMRRGPSGPRTLCNACGLFWANRGTLRDLSKKTEENQLALMKPDDGGSVADAANNLNTEAASVEEHTSMVSLANGDNSNLLGDH | soluble
12 | MFILSLLHDTVAIQPHQLSSDQQIVIKKRLNERLANKIIPDLGLCICVYDINEIGDSYILPGEGDCRARVKFRMIVFRPFVDEVIEAKVIGSSRQGLCLTIQFFEDIFVPAEKLPEPHVFEEEGQVWYWEYAQEDGEPPAKLYMDPGKIVRFRVTEIIFKDLKPELTHEERKTEKSMEIKGTMASTGLGCIGWWAAEDEDDEAVEDEQDEQEEVIQPKEEIRQPQEEVRQPVKIKEEPV | not soluble
13 | MFKHKKNEARNYSKMRESRYEYGTILKAHAAFVEIVTRPAPHRDNLPFNMSTLSVLIETSSCSWGMLASAHGDRTIGIILRAIVSFCNAHLGQSANNQLLVFAYGRNVDNKMIYSSTRCEDRNASFLVVKRLRELLSSDALTNDATIGAPLGPALAHAFCHMKKDSRVVTADPCDDSLGPQTTSEQSETASEKATNRAVVISITPIMGSEHGSLMNLFFSAAKQSICVDVVSMGDDFTGGILQQAADITGGSFLHAKKPQTLLKILMTNMLTDPTHRAVFSKLSHNSVDYRASCACHHQLVSSGWVCSICLSVLCQYTPICKVCKAAFTIANLPIKPNRKRAIRN | not soluble
14 | MFKKIATILGSTLFGTVLFAKVKEKRSYKSFLQEKMIRISGMKKTFESIDDAKKALNETKYQTAGKYNGTTYEFKHKVQIRDYYGSLVYVVNDHGLPDQRTVLYVHGGAWFQDPLENHFEYLDLLVDALDARVIMPVYPKIPHRDYRTTFELLTKIYKRLLTKIDEPENLVIIGDSAGGQIALAFAQMLKKEQLSQPGHIVLISPVLDATFKNPEARKYEKEDPMLGIDGSKYLVELWAGDAPLDDYKMSPMNGDLEGLGHITLTVGTKETLYPDAVKFSHMLNDKGIKHQFIPGYNLFHIYPLFPIPERQRFLEQLKKIIVTKEL | not soluble
15 | MFLAQPRGFCAGVVRAIEIVERALEKYGPPVYVRHEIVHNKYVVESLKAKGAIFVEELSEVPPKAVTVFSAHGVARSIEEEAAARDLPVLNATCPLVTKVHNQGKRYTSKGRTLILIGHAGHPEVEGTMGQVPGPVLLVQNLDDVAALTLPPETPVAYITQTTLSVDDTKDIIVALSKKFHDIEGPDTRDICYATQNRQSAVRQMSKLVDLILVVGANNSSNSNRLREIGTEAGIPSYLIADGSELDPAWLDGKKAVGITAGASAPEVLVDDVIEALRRIVPVTVSVLPGREENIEFVLPAELATALEHHHHHH | not soluble
16 | MFLEECKTHFNTDCLYELLGVKKDCDEKALKKGYYRQSMRWHPDKSNLVEEDMQTYTTKFQLLNKAYQILSDEEKRKIYDETGSVDDEAGELNEDALKAWRMIFKKVTKEDIDSFMKTYQGSREQKDELVVHYEKFNGDIAKIREYAIGFDGVEELKEALDKLIDDGEIEKTKKYETSTSDKKMKAYKRKAEKEAIEVENMTQNNSDLVALIQGRQKERGTSFLDSLAAKYAPSSSKKAKRQ | not soluble
17 | MFLTRSEYDRGVNTFSPEGRLFQVEYAIEAVKLGSTSIGIKTSEGVLLAAEKRSTSKLMVNDAIEKISKVDQHIGVTFAGLIADSRTLVERAQIEAQNFWFTYNRKIRVEDVTQSVANLALQFGDDDVKASMSRPFGVAMLFAGVDQEGAKLFHLDPSGTFIDCKAKSIGAASDGAEQNLKEQYHDALTIKEGLKMALAILKQVMEEKLNSANVEVVVIKPTVDAKGRPIGEFTRVSNEELDQVITSL | not soluble
18 | MFNVSALAAATPSIASVSSVASPSEQHGLSTSVGVGVNDTTSRTGDGGAASSASSASAAPQQQSQSALHNKLEAKWDTLLPTDTNLQCSTWPDSIPLLAGYSATPTFSFDPCTYGSYDPSAYFASNGIAGSMYTLPDQFPRSENDMLDNSNTSNGNKSDKDGIKLEDEDEILEDEENDEEDDGTGKRKKRKRRVLFTKAQTYELERRFRSQKYLSAPEREALAMQIRLTPTQVKIWFQNHRYKTKKSHTDKPINAALLTTMPNAFSSQSTAASFPTRAMPIPMLVRDSSARSSDISSTSPYTVAFGSANSGYLPTPSAYLPATSGYFSNGPSAASSYMTNTQWWPS | not soluble
19 | MFPERLRALRRGQKMTLAQLAAALNQMPTADKTTRQNTAAQIGNWERDLRTPSYLEVRKLAEFFNVTTDYLSGKSDQEEYDLGRIFLSGKPLTFNQEQLSSEDRYELFQLMDGYLHGRQHRVSTDATGQEELDLHFDD | not soluble
